The source of these data is patent publication US20190185560A1 (Novo Nordisk, published 2019).

Series [1] addresses T1, cynomolgus TREM-1 on cells (TE426.27 reporter cell line) (cynomolgus monkey).
T1 chain: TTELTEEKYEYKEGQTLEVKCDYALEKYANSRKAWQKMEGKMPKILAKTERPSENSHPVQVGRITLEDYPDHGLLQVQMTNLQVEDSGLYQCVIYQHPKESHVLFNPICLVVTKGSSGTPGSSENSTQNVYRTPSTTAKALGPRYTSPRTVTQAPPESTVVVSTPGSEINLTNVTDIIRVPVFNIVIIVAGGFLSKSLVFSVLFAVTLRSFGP
Kind of series: cell-based or functional assay.

The next series addresses T2, cynomolgus TREM-1-Fc (cynomolgus monkey).
T2 construct: also called cTREM-1
T2 chain: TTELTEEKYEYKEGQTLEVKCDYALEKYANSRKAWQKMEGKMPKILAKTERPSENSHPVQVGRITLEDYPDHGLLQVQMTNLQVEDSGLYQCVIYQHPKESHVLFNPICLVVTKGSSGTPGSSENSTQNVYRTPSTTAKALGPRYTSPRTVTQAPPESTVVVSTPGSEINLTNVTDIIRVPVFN
Briefly: SPR (ProteOn), antibody captured via anti-Fc, TREM-1-Fc as analyte, 1:1 Langmuir fit, 25 C. As to the method:
Binding studies were performed on a ProteOn Analyzer (BioRad) that measures molecular interactions in real time through surface plasmon resonance. Experiments were run at 25° C. and the samples were stored at 15° C. in the sample compartment. The signal (RU, response units) reported by the ProteOn is directly correlated to the mass on the individual sensor chip surfaces in the six parallel flow cells. Anti-human Fc monoclonal or anti-murine Fc polyclonal antibody from Biacore human or mouse Fc capture kits were immobilized in horizontal direction onto flow cells of a GLM sensor chip according to the manufacturer's instructions. The final immobilization level of capture antibody was approximately 2600-6000 RU in each experiment. The capture of purified monoclonal mouse or recombinantly expressed anti-hTREM-1 antibodies was conducted by diluting the antibodies to 5-10 nM into running buffer (10 mM Hepes 0.15 M NaCl, 5 mM EDTA, 0.05% surfactant P20, pH 7.4) followed by injection in vertical direction at 30 μL/min for 60 sec, creating reference interspots adjacent to all flow cells with only anti-Fc antibody immobilized. […] Binding of hTREM-1 or cTREM-1 proteins was conducted by injecting analyte (antigen) over all flow cells in horizontal direction to allow for comparative analyses of binding to different captured anti-TREM-1 antibodies relative to binding to the reference interspot. hTREM-1 or cTREM-1 proteins were diluted serially 1:3 to 1.2-100 nM or into running buffer, injected at 100 μL/min for 250 s and allowed to dissociate for 600 s. The GLM surface was regenerated after each injection cycle of analyte via two 18 s injections of 10 mM Glycine, pH 1.7 and 50 mM NaOH at 100 μL/min. This regeneration step removed the anti-TREM-1 antibody and any bound TREM-1 protein from the immobilized capture antibody surface and allowed for the subsequent binding of the next interaction sample pair.

Series [2] concerns the molecule itself. Briefly: X-ray crystal structure of the Fab region of mAb 0170 (self-interaction in the crystal).

Changes are numbered by the printed parent chain. Numbers in names are those of the source.

B1: mAb 0170 (humanised TREM-1 antibody, mAb 0170 of WO2013/120553) (antibody, V domains shown)
VH: EVQLVESGGGLVQPGGSLKLSCAASGFTFSTYAMHWVRQASGKGLEWVGRIRTKSSNYATYYAASVKGRFTISRDDSKNTAYLQMNSLKTEDTAVYYCTRDMGIRRQFAYWGQGTLVTVSS
VL: DIVLTQSPDSLAVSLGERATINCRASESVDTFDYSFLHWYQQKPGQPPKLLIYRASNLESGVPDRFSGSGSGTDFTLTISSLQAEDVAVYYCQQSNEDPYTFGQGTKLEIKR
notes: also called mAb 170
In the case of B1, in series [1], the “IC50: inhibition of luminescence of TE426.27 cynomolgus TREM-1 reporter cells stimulated with PGN and recombinant PGLYRP1” value (“IC50: inhibition” below) turned out to be 6 nM. The Kd with cynomolgus TREM-1-Fc was 2 nM.

B2: Fab region of mAb 0170 (Fab, V domains shown)
VH: B1 VH
VL: B1 VL
notes: Crystallised alone; packs as Fab-Fab dimers; also called Fab 0170; mAb 170 Fab region
B2: the binding result in series [2] is “binds”.

B3: mAb 0321 (mAb 0170 variant, light chain E27Q) (antibody, human IgG4 S228P, kappa, V domains shown)
VH: B1 VH
VL: B1 VL with E27Q
notes: Charge patch mutation
On to B3, for which the affinity in the series with cynomolgus TREM-1-Fc, expressed as Kd, was 2 nM.

B4: mAb 0319 (mAb 0170 variant, light chain E97S) (antibody, human IgG4 S228P, kappa, V domains shown)
VH: B1 VH
VL: B1 VL with E97S
notes: Charge patch mutation
Regarding B4, the “IC50: inhibition” value in series [1] is 17.7 nM. This molecule also showed a Kd with cynomolgus TREM-1-Fc of 2 nM.

B5: mAb 0322 (mAb 0170 variant, light chain F32A) (antibody, human IgG4 S228P, kappa, V domains shown)
VH: B1 VH
VL: B1 VL with F32A
As for B5, the “IC50: inhibition” value in series [1] was found to be 5.9 nM. The molecule further returned a dissociation constant (Kd) with cynomolgus TREM-1-Fc of 0.1 nM.

B6: mAb 0333 (mAb 0170 variant, heavy chain A59Y, light chain F32A, E27Q, E97Q) (antibody, human IgG4 S228P, kappa, V domains shown)
VH: B1 VH with A59Y
VL: B1 VL with E27Q, F32A, E97Q
Molecule B6 gave a Kd in the series with cynomolgus TREM-1-Fc of 0.3 nM.

B7: mAb 0330 (mAb 0170 variant, light chain F32A, E27Q, E97Q) (antibody, human IgG4 S228P, kappa, V domains shown)
VH: B1 VH
VL: B1 VL with E27Q, F32A, E97Q
Regarding B7, the “IC50: inhibition” value in series [1] is 10.7 nM. Moreover, the Kd in the series with cynomolgus TREM-1-Fc was determined as 0.1 nM.

B8: mAb 0320 (mAb 0170 variant, light chain E97Q) (antibody, human IgG4 S228P, kappa, V domains shown)
VH: B1 VH
VL: B1 VL with E97Q
notes: Charge patch mutation
In the series with cynomolgus TREM-1-Fc, B8 yielded a Kd of 3 nM.

B9: mAb 0332 (mAb 0170 variant, heavy chain A59Y, light chain E27Q, E97Q) (antibody, human IgG4 S228P, kappa, V domains shown)
VH: B1 VH with A59Y
VL: B1 VL with E27Q, E97Q
In turn, B9 returned a Kd with cynomolgus TREM-1-Fc of 4 nM.

B10: mAb 0325 (mAb 0170 variant, heavy chain N57S) (antibody, human IgG4 S228P, kappa, V domains shown)
VH: B1 VH with N57S
VL: B1 VL
Molecule B10 came in with a Kd with cynomolgus TREM-1-Fc of 1 nM.

B11: mAb 0317 (mAb 0170 variant, light chain E27Q, E97S) (antibody, human IgG4 S228P, kappa, V domains shown)
VH: B1 VH
VL: B1 VL with E27Q, E97S
notes: Charge patch mutations
Consider B11, for which the “IC50: inhibition” value in series [1] turned out to be 9.5 nM. The molecule also registered a Kd with cynomolgus TREM-1-Fc of 3 nM.

B12: mAb 0318 (mAb 0170 variant, light chain E27Q, E97Q) (antibody, human IgG4 S228P, kappa, V domains shown)
VH: B1 VH
VL: B1 VL with E27Q, E97Q
notes: Charge patch mutations
As for B12, the “IC50: inhibition” value in series [1] amounted to 5.6 nM. Binding with cynomolgus TREM-1-Fc was put at a Kd of 2 nM.

B13: mAb 0323 (mAb 0170 variant, light chain F32S) (antibody, human IgG4 S228P, kappa, V domains shown)
VH: B1 VH
VL: B1 VL with F32S
Consider B13, for which the dissociation constant (Kd) with cynomolgus TREM-1-Fc amounted to 0.6 nM.

B14: mAb 0324 (mAb 0170 variant, heavy chain A59Y) (antibody, human IgG4 S228P, kappa, V domains shown)
VH: B1 VH with A59Y
VL: B1 VL
Regarding B14, the Kd with cynomolgus TREM-1-Fc was 4 nM.

One may read the Kd as the equilibrium constant for the complex coming apart. The low end stands for higher affinity, the high end for lower affinity.
